Experimental data reported in paper PMC5465497.

Columns and labels:
[1] = target: BEAT 2/3 (A): CH2 γ1 - BEAT CH3 (A) γ3; (B): CH2 γ1 - BEAT CH3 (B) γ1 D84.4Q (human); assay: SPR; antibody covalently coupled onto a CM5 sensor chip, FcRn injected; HBS-EP+ adjusted to pH 6; room temperature; steady-state fitting model; regeneration with HBS-EP+ pH 7.4
[2] = target: BEAT 2/3 (A): CH2 γ3 - BEAT CH3 (A) γ3; (B): CH2 γ1 - BEAT CH3 (B) γ1 (human); assay: as above
[3] = target: BEAT 2/3 (A): CH2 γ3 - BEAT CH3 (A) γ3; (B): CH2 γ1 - BEAT CH3 (B) γ1 D84.4Q (human); assay: as above
Herceptin IgG (human) [4] = assay: as above
[5] = target: BEAT 2/3 (A): CH2 γ1 - BEAT CH3 (A) γ3; (B): CH2 γ1 - BEAT CH3 (B) γ1 (human); assay: as above
Herceptin IgG (human) [6] = assay: SPR; antibody captured via Protein A, FcγR1a injected; room temperature; 1:1 Langmuir model with Rmax set to local; regeneration with 10 mM glycine pH 1.5
Herceptin IgG (human) [7] = assay: SPR; antibody covalently coupled onto a CM5 sensor chip, Fc receptor extracellular domain injected; HBS-EP+ running buffer; room temperature; steady-state fitting model; no regeneration
[8] = target: BEAT 2/3 (A): CH2 γ1 - BEAT CH3 (A) γ3; (B): CH2 γ1 - BEAT CH3 (B) γ1 D84.4Q (human); assay: as above
[9] = target: BEAT 2/3 (A): CH2 γ3 - BEAT CH3 (A) γ3; (B): CH2 γ1 - BEAT CH3 (B) γ1 D84.4Q (human); assay: as above
[10] = target: BEAT 2/3 (A): CH2 γ1 - BEAT CH3 (A) γ3; (B): CH2 γ1 - BEAT CH3 (B) γ1 (human); assay: as above
[11] = target: KiH (knobs-into-holes) Fc-like chain, second engineered CH3 domain (human); assay: non-reduced SDS-PAGE with scanning densitometry of co-expressed chains (heterodimerization assay); two Fc-like chains co-transfected at a 1:1 ratio into HEK293-EBNA cells; Protein A-purified preparation; 4-12% gel, Coomassie staining; bands below the 49-kDa marker excluded
[12] = target: MI (CH3) AG/GA Fc-like chain, GA domain (IgG1 CH3 with positions 85.1 and 86 and their set exchanged for IgA CH3 residues) (human); assay: as above
[13] = target: SEED Fc-like chain, the other SEED CH3 domain (human); assay: as above

FcRn extracellular domain (with beta-2-microglobulin) (from UniProt P55899 24-297; P61769 21-119) (receptor)
Kd [1]: 686 nM | Kd [2]: 543 nM | Kd [3]: 577 nM | Kd (Herceptin IgG (human) [4]): 622 nM | Kd [5]: 708 nM

FcγR1a extracellular domain (from UniProt P12314 16-292) (receptor)
Kd (Herceptin IgG (human) [6]): 0.138 nM

FcγR2a extracellular domain, variant H167 (from UniProt P12318 34-217) (receptor)
Kd (Herceptin IgG (human) [7]): 2000 nM

FcγR2b extracellular domain (from UniProt P31994 43-217) (receptor)
Kd (Herceptin IgG (human) [7]): 4270 nM

FcγR3a extracellular domain, variant V176 (from UniProt P08637 17-208) (receptor)
Kd [8]: 347 nM | Kd [9]: 238 nM | Kd (Herceptin IgG (human) [7]): 267 nM | Kd [10]: 206 nM

KiH (knobs-into-holes) Fc-like chain, first engineered CH3 domain (domain or fragment)
heterodimer content [11]: 67%

MI (CH3) AG/GA Fc-like chain, AG domain with Trp 81 back mutated to threonine (domain or fragment)
loss in HD rate against the heterodimer with Trp 81 [12]: 4%

SEED Fc-like chain with Trp 81 back mutated to threonine (domain or fragment)
loss in HD rate against the heterodimer with Trp 81 [13]: 20%

SEED Fc-like chain, the SEED CH3 domain that has Trp 81 (domain or fragment)
heterodimer content [13]: 83%
